Data on 41 sequences can be found in the nanobody polyreactivity screen of Harvey et al. (2022).

A short description of the data set: yeast display, Sf9 membrane polyspecificity reagent, FACS + sequencing; frameworks hold sequencing errors. In a few lines: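 Nanobodies came from a synthetic yeast display library in Saccharomyces cerevisiae BJ5465, induced with galactose for 36–48 hours and stained for 1 hour at 4 °C with 10% biotinylated, detergent-solubilized Sf9 membrane reagent. Cells were enriched on streptavidin microbeads and then FACS-sorted, with low and high (top ~1%) gates set on anti-HA fluorescence for expression and streptavidin fluorescence for reagent binding. Each polyreactivity label reflects the gate a clone came from. Genes were amplified by colony PCR, sequenced by MiSeq 2 × 250 and filtered by CDR length.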
Turning to “QVQLVESVGGLVQAGGSLRLSCAASGSTFYSYSMGWYRQEPGKERELVAAISWNGGSTYYADSVKGRFTISRDNAKNTVYFQMNSLKPEVTAVYYCAARGGYPYWRYYRFYKMDYWGQGTQVTVSS”, the “polyreactivity (PSR sort gate)” value is given as “low polyreactivity”.
“QVQLVESVGGLVQAGGSLRLSCAASGSTSSYYTMGWYRQAPGKERELVAYADSVKGRFTISRDNAKNTVYLQMNSLKPEDTAVYYCAAPRTYYSELTSPYDYWGQGTQVTVSS”: the “polyreactivity (PSR sort gate)” value is recorded as “low polyreactivity”.
“QVQLVESVGGLVQAGGSLRLSCAASGTLATYAMGWYRQAHGKERELVAAIRYSDGRTYYADSVKGRFTISRDNAKNTVYLLMNSLKPEDTAVYYCAASFRGRGKKLDYWGQGTQVTVSS”: the “polyreactivity (PSR sort gate)” value is “low polyreactivity”.
For the sequence “QVQLVESVGGLVQAGGSLRLSCAASGYTFYRYAMGWYRQAPGKESELVAGISRDGGSTYYADSVKGRFTISRDNAKNTVYLQMNSLKPEDTAVYYCAADKTRYRLGRDYWGQGTQVTVSS”, the “polyreactivity (PSR sort gate)” value is listed as “low polyreactivity”.
For the sequence “QVQLVESVGGLVQAGGSLRLSCADSGFTIYSYAMGWYRQAPGKERELVAAITQSGGSTYYADSVKGRFTISRDNAKNTVYLQMNSLKPEDTAVYYCAAVIYIDYDYGYYYWGQGTQVTVSS”, the “polyreactivity (PSR sort gate)” value is listed as “low polyreactivity”.
Regarding “QVQLVESVGGLVQAGGSLRLSCADSGSTFYFNAMGWYRQAPGKEREFVAAIEWSGGSTYYADSVKGRFTISRDNAKNTVYLQMNSLKPEDTAVYYCAAPYHYYGNSVGYADYDYWGQGTQVTVSS”, the “polyreactivity (PSR sort gate)” value is given as “low polyreactivity”.
On to “QVQLVESVGGLVQAGGSLRLSCAGSGFTCGAYAMGWSRQAPRKERELVAAINTRGGSRYYADSVKGRFTISRDNAKNTVYLQMNSLKPEDTAVYYCAASVYFWYDYWGQGTQVTVSS”, for which the “polyreactivity (PSR sort gate)” value is given as “high polyreactivity”.
In the case of “QVQLVESVGGLVQAGGSLRLSCAPSGRIFGKYAMGWYRQAPGKERELVADITWGGGSTNYADSVKGRFTISRDNAKNTVYLQMNSLNPDDTAVYYCATGFYYYLTKTIPYEYEYWGQGTQVTVSS”, the “polyreactivity (PSR sort gate)” value was “low polyreactivity”.
The result for “QVQLVESVGGLVQAGGSLRLSCASSVRTFYRYAMGWYRQAPGKERELVAAISRGGRTNYADSVKGRFTISRDNAKNTVYLQMNSLKPEDTAVYYCAVSNYGALYDYWGQGTQVSVSS” reads “high polyreactivity”; that for “QVQLVESVGGLVQAGGSLRLSCDASGYIFKNYAMGWYIQAPGKERELVAAINWSGGNTYYADSVKGRFTISRDNAKNTVYLQMNSLKPEDTAVYYCNAVSSLRSYGYNYCGQGTQVTVSS”, “low polyreactivity”; that for “QVQLVESVGGLVQAGGSLRLSCPASGSTFTDYAMGWYRQAPGKERELVAANSWSGGSTYYADSVKGRFTISRDNAKNTVYLQMNSLKPEDTAVYYCAFRYHGYDYWGQGTQVTVSS”, “high polyreactivity”.
As for “QVQLVESVGGLVQAGGSLRLSCSASGRTFSYYTMGWYRQAPGKERELVADINTSVGSTDYADSVKGRFTISRDTAKNTVYLQMNSLKPEDTAVYYCQLIRRGHDYWGQGTQVTVSS”, the “polyreactivity (PSR sort gate)” value was “high polyreactivity”.
Then “QVQLVESVGGLVQAGGSLRLSCSASGSIFDYYAMGWYRQAPGKQRELVAAITSGGSTYYADSVKGRFTISRDNAKNTVYLQMNSLNPEDTAVYYCNATYYYWLSYDYWGQGTQVSVSS”, with “low polyreactivity”; and “QVQLVESVGGLVQAGGSLRLSCSASGSIFWYNAMGWYRQAPGKERELVAAISRGGSTKYADSVKGRFTISRDNAKNTVYLQMNSLKPEDTAVYYCAARYYRSSQGWTYDYWGKGTQVTVSS”, with “low polyreactivity”.
Then “QVQLVESVGGLVQAGGSLRLSGAASGRTFSSYALGWYRQAPGKVRELVAGIRLSTGSTYYADSVKGRFTISRDNAKNTVYLQMNSLQPEDTAVYYCNARGWAYSGAKSYYWGQGTQVTLSS”, with “high polyreactivity”.
As for “QVQLVESVGGLVQAGGSLRLSSAASGLIFNEYVMGWYRQAPGKERELVAGISRIGGSTYYADSVKGRFTISRDNAKNTVYLQMKSLKQEDTAVYYCARPNLLSGDYWGQGTQVTVSS”, the “polyreactivity (PSR sort gate)” value is listed as “high polyreactivity”.
With “QVQLVESVGGLVQAGGSLRLTCAASGIIFAWYVMGWYRQAPGKERELVAAITQSGGSTFYADSVKGRFTISRDNAKNTVYLQMNSLKPEDTAVYYCNTEDFVNVPEMDSWGQGTQVTVSS”, the “polyreactivity (PSR sort gate)” value is listed as “low polyreactivity”.
Then “QVQLVESVGGLVQAGGSLRLTCAASGRILGYYAMGWYRQAPWKERELVAAISRAGSTNYADSVKGRFTISRDNAKNTVNLQMNSLKPEHTAVYYCAARQYRRGYNYWGQGTQVTVSS”, with “high polyreactivity”.
With “QVQLVESVGGLVQAGGTHRLSCSASGSTFFYYAMGWYRQAPGKERELVAAISSSGGRTYYADSVKGRFTISRDTAKNTVYLQMNSLKPEDTAVYYCAARDYRQSRYEYWGQGTEVTVSS”, the “polyreactivity (PSR sort gate)” value is recorded as “high polyreactivity”.
Take “QVQLVESVGGLVQAGVSLRLRCAASGFIFWYYAMGWYRQATGKDRELVASISARDGSTYYADSVKGRFTISRYNAKNTVYLQMNSLKPEDTAVYYCNAVQRYPKYRMDYCGQGTQVTVSS”: the “polyreactivity (PSR sort gate)” value is given as “low polyreactivity”.
Take “QVQLVESVRGLDQAGGSLRLSCAASGSIFDSNAMGSYRQATGKERELVAAITGSGTSTYYADSVKGRFTISRDNAKNTVYLQMNILKPEDTAVYYCARDSLQVFYTYGSDDYWGQGTQVTVSS”: the “polyreactivity (PSR sort gate)” value was “low polyreactivity”.
Regarding “QVQLVESVVGLVQAGGILRLSCSASGSTLPWYAMGWYRQAPGKERELVAAISYRGGSTYYADSVKGRFTISRDNAKNTVYLQLNSLKPEDTAVYYCAARFYFQPLWYKGYYWGQGTQVTVSS”, the “polyreactivity (PSR sort gate)” value is listed as “high polyreactivity”.
“QVQLVESVVGLVQAGGSLRLSCAASGGTFSFNAIGWYRQAPGKETELVAAITQTGDGTYYADSVKGRFTISRDNAKNSVYLQMNIMKPEDTAVYYCNTDSIPFVPWFRFDYWGQGTQVTVSS”: the “polyreactivity (PSR sort gate)” value is recorded as “low polyreactivity”.
For “QVQLVESVVGLVQAGGSLRLSCAASGRTFRRYAMGWYRQAPGKERELVAAISRSGGSTYADSVKGRFTISRDNAKNTVYLQMNSLKPEDTAVYYCAAVTYSGSRFDYWGQGTQVTVSS”, the “polyreactivity (PSR sort gate)” value is “high polyreactivity”.
As for “QVQLVESVVGLVQAGGSLRLSCAASVRTFVEYSMGWYRQAPGQERELVAAISSGGGSTYYADSVKGRFTISRDNAKNTVYLQMNSLKPEDTAVSYCATVGYRHRGWTSGYWGQGTQVTVSS”, the “polyreactivity (PSR sort gate)” value is listed as “high polyreactivity”.
As for “QVQLVESVVGLVQAGGSLRLSCASSGSTFGANAMGRYRQAPGKEREFLAAISRSGVRTYYADSVKGRFTISRDNAKKTVYLQMNSLKPEDTAVYYCAADGYWWTYTRYDYWGQGTQVTVSS”, the “polyreactivity (PSR sort gate)” value is given as “low polyreactivity”.
Take “QVQLVESWGGLFQAGGSLRLRCAASGRKFYYYAMVFYIQAPGKERELVAAITGRGGRTYYADSVKGRFTISRDNAKNTVYLQINSLKPDDTAVYYCAVRAGSAGYPKYDYWGQGTQVTLSS”: the “polyreactivity (PSR sort gate)” value is on record as “high polyreactivity”.
Take “QVQLVESWGGLVQAGGRLRLSCAASGNTFWDNAMRWYRQAPGKERELVAAIRWSTVSTHYADSVKGRFTISRDNAKNTVYLQMNSLKPEDTAVYDCAATAYYYYRDKYYGYDYWGQGTHVTVSS”: the “polyreactivity (PSR sort gate)” value was “low polyreactivity”.
Then “QVQLVESWGGLVQAGGSLRISCAASGFIIDGNAMGWYRQAPGKERELLAAISGDGGSYYADSVKGRFTISRDNAKNSVYLQRNSLKPEDTAVYDCAAEQTQLYSFGWDEYWGQGTQVTVSS”, with “low polyreactivity”.
The result for “QVQLVESWGGLVQAGGSLRISCAASGRTFGSYVMGWYRQAPGKERELVAAISSRGTRTYYADSVKGRFTISRDNAKNTVYLQMNSLKPEDTAVYYCNAKYGQYPPRYEYWGQGTQVTVSS” reads “high polyreactivity”.
In the case of “QVQLVESWGGLVQAGGSLRISCAASGRTFVRNALGWYRHAPGKEREMVAGITRSGGSTYYADSVKGRFTISRDNAKNTVYLQMNSLKPEDTAVYYCATQYRYYNHFVTPFTRYGYWGQGTQLTVSS”, the “polyreactivity (PSR sort gate)” value is on record as “high polyreactivity”.
On to “QVQLVESWGGLVQAGGSLRLICAASRGTFRVYAMGWYRQAPVKERELVAAITWRGGRTYYADSVKGRFTISRDNAKNTVYLQMNSLKPEDTAVYYCAADRYGDLYDYWGQGTQVTVSS”, for which the “polyreactivity (PSR sort gate)” value is on record as “high polyreactivity”.
For “QVQLVESWGGLVQAGGSLRLSCAASGFTFFYYDMGWYRQAPGKERQLVAAITWRGGRTYYADSVKGRFTISRDNAKNTVYLQMNSLKPEDTAVYYCNAYWGYAKVGQFDYWGQGTQVTVSS”, the “polyreactivity (PSR sort gate)” value is given as “high polyreactivity”.
The result for “QVQLVESWGGLVQAGGSLRLSCAASGFTFTSYAMGCYRQAPGKEREFVAGITKGGGNTYYSDSVKGRFTISRDNAKNTVYLHMNSLKPEDTEVYYCAADRSSFYLSHGTVDCYDYWGQATQVTVSS” reads “low polyreactivity”; that for “QVQLVESWGGLVQAGGSLRLSCAASGIFYPMGWYTQAPGKERELVAAISSVGSTKYADSVKGRFTISRDNAKNTVYFQINSLKPEDTAVYYSNADVTRASSRYNSWGQGTQVTVSS”, “low polyreactivity”; that for “QVQLVESWGGLVQAGGSLRLSCAASGITFSSNAMGWSRQAPGKERELVAAINSGDSTNYADSVKGRFTISRDNAKNTVYLQMNSLKPEDTAVYDCAKRYRRRFNYWGQGTQVTVSS”, “high polyreactivity”.
Take “QVQLVESWGGLVQAGGSLRLSCAASGLIIYTYAMGWYRQAPGKERELVADINRSDGSTYYADSVKGRFTISRDNAKNTVYLQMNSLKPEDTAVYYCAVVGPYYSRFGGRYYYWGQGTQVTVSS”: the “polyreactivity (PSR sort gate)” value is “low polyreactivity”.
Then “QVQLVESWGGLVQAGGSLRLSCAASGRIFGYYAMGWSRQAPGKERELVAVISSGGSTYADSVKGRFTISRDNAKNTVYLQMNSLKPEDTAFYYCAARNYWSSYRTYRSRYDYWGQGTQVTVSS”, with “high polyreactivity”.
The result for “QVQLVESWGGLVQAGGSLRLSCAASGRIFKTYAMGWYRQAPGNEREFFAAITSSGGSTYYADSVKGRFTISRDHAKNTVYLQKNSLNPEDTAVYYCNAGSLHRRYYYEGDYWGQGTQVTVSS” reads “high polyreactivity”.
For the sequence “QVQLVESWGGLVQAGGSLRLSCAASGRIFKYNAMGWYRQAPGKERELVAAISGGGSTNYADSVKGRFTISRDNAKNTVYLQMNSLKPEDTAVYYCAASDPFEASQYKYDYWGQGTQVTVSS”, the “polyreactivity (PSR sort gate)” value is “low polyreactivity”.
In the case of “QVQLVESWGGLVQAGGSLRLSCAASGRIFWAYAMGWYRHAPGKERELVAGITFTGGRTYYADSVKGRFTISRDNAKNTVYLQMNSLKPEDTAVYYCAAAGLDVGRKDRDGYWGQGTQVTVSS”, the “polyreactivity (PSR sort gate)” value was “low polyreactivity”.
